What was measured:
[1] = biological target: Human hemoglobin A, oxidized form (methemoglobin, MetHb) (human) (UniProt P69905); assay: SEC; tetramer to dimers; HiLoad 16/600 Superdex 75 in reaction buffer (Tris/HCl 100 mM, NaCl 150 mM, EDTA 1 mM, pH 8.0); Hb in the oxy and met forms injected at different concentrations
[2] = biological target: Human hemoglobin A, reduced oxygenated form (OxyHb) (human) (UniProt P69905); assay: as above

Kd [1] [nM]	Kd [2] [nM]	Substance
520		Human hemoglobin A, oxidized form (methemoglobin, MetHb), P69905 1-142; P68871 1-147 (complex; other documents disagree on this pair)
	250	Human hemoglobin A, reduced oxygenated form (OxyHb), P69905 1-142; P68871 1-147 (complex; other documents disagree on this pair)
